# Reference: article PMC8939767 (2022)
# T1: HCoV-HKU1 soluble spike ectodomain protein (HCoV-HKU1, UniProt Q5MQD0 13-1300)
# T1 chain: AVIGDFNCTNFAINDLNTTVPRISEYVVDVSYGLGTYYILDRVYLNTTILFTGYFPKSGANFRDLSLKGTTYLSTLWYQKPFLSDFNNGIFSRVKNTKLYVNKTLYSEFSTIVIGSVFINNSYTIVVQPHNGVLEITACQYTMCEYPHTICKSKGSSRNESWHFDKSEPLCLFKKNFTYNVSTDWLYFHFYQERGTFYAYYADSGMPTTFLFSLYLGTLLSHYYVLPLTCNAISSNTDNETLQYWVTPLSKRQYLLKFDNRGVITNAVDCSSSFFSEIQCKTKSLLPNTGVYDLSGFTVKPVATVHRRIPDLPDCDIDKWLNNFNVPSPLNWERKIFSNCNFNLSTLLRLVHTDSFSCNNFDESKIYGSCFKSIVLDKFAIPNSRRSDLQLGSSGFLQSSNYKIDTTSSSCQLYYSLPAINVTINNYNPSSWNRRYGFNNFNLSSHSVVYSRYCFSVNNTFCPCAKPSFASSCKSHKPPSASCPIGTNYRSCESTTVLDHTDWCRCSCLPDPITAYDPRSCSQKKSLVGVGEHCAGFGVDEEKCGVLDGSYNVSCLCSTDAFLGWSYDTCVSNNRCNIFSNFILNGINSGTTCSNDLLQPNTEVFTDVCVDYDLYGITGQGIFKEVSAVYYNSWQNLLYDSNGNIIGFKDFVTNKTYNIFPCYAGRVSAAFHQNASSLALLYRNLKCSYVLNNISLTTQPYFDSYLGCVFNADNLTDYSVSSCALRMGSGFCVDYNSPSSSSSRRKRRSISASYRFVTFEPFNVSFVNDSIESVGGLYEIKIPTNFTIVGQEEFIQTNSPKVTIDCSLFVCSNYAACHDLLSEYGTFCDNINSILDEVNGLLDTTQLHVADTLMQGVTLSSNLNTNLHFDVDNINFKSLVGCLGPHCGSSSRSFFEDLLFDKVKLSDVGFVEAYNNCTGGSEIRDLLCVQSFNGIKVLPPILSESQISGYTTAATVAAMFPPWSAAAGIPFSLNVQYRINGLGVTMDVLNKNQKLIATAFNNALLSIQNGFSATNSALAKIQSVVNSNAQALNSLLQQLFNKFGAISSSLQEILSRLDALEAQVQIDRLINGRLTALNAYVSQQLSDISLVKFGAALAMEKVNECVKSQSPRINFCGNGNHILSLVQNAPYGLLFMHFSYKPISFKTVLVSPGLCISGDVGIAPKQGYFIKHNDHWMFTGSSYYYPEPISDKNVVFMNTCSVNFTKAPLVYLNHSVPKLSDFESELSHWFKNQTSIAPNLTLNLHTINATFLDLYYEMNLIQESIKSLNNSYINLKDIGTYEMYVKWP
# B1: CC40.8 broadly neutralizing antibody (IgG) (antibody, V domains shown)
# VH: EVQLLESGGGLVQPGGSLRLSCAASGFTFSSYVMTWARQAPGKGLEWVSAISGTGYTYYADSVKGRFTVSRDNSKNTLFLQMSSLRAEDTAVYYCAITMAPVVWGQGTTVTVSS
# VL: SYELTQPPSVSVSPGQTARITCSGDALPKRYAYWYQQKSGQAPILVIYEDKKRPSGIPERLSGSKSGTVATLTISGAQVEDEADYYCYSTDSSGNHAVFGGGTQLTVL
# Experiments:
# Assay in all cases: BLI
# [1] = target: T1, HCoV-HKU1 soluble spike ectodomain …
# [2] = target: SARS-CoV-1 soluble spike protein
# [3] = target: SARS-CoV-2 soluble spike protein
# [4] = target: HCoV-OC43 soluble spike protein
binder,measurement,setting,value
B1,Kd,[1],< 1 pM
same,Kd,[2],< 1 pM
same,Kd,[3],< 1 pM
same,Kd,[4],~10000 pM
